For the experiment, the target named is T1, His-mouse IKKβ (purified) (mouse, UniProt O88351 1-757).
T1 sequence (looked up): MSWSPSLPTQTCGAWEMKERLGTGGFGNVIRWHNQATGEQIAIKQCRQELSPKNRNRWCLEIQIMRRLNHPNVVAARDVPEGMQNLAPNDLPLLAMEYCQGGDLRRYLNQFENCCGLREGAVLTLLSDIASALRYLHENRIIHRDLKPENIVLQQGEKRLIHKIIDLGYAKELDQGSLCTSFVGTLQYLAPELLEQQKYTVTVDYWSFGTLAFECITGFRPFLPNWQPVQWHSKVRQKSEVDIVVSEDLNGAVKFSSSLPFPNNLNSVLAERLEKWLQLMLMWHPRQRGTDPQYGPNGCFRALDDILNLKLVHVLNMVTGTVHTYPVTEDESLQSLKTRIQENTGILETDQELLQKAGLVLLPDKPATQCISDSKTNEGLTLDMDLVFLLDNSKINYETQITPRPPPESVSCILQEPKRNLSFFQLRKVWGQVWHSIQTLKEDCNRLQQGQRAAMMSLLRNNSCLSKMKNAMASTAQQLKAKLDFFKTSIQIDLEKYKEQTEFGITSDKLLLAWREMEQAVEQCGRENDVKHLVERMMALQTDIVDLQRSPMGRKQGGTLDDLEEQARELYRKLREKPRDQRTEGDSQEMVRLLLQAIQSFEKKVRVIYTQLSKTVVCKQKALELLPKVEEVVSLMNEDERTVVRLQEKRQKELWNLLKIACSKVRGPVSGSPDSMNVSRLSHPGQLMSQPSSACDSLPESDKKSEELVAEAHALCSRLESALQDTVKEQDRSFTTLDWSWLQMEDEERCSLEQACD
In words: pull-down.

B1: GST-mouse RMP-WT (natural protein, UniProt Q3TLD5 1-531, looked up)
chain: MEPPSEPEPEPQPLAEASAAAPLRAPEVARLREEQEKVVTNCQEKIQHWEKVDNDYSALQERLRTLPDKLSYDVMVPFGPLAFMPGKLVHTNEVTVLLGDNWFAKCSAKQAVGLVEHRKEHVRKTIDDFKKVLKNFESRVEFTEDLQKMSDAAGDFVDIREEIKSDFEFKGKQRIAHKPHSKPKTSDIFEADFENGVKPKNTFDADELWARLEELERQEELLGELESKPDTVIANGEDRVSSEEEKEGADTGVNVVSPVTDSSAASSCKRRAGNAGLPNGQVNSLNYSVNGSNSYHSNKDDDEEEEDDDDDDDEDDDNESDHAISADNSIPTIYFSHTVEPKRVRINTGKNTTLKFSEKKEEAKRKRKSGAGSHATHELPAIKSPADIYRVFVDVVNGEYVPRKSILKSRSRENSVCSDTSESSAADVEDRRGLLRSTSSEEAVATEAGGSSLDELQENHPKKPLPSGVSEAFSGTVIEKEFLSPSLAPYSAIAHHALPTIPERKEVPSEVSEEPTKRVSKFRAARLQQRS
As for B1, the binding result is listed as “binds”.

B2: GST-mouse RMP-S439A (natural protein, UniProt Q3TLD5 1-531, looked up)
chain: MEPPSEPEPEPQPLAEASAAAPLRAPEVARLREEQEKVVTNCQEKIQHWEKVDNDYSALQERLRTLPDKLSYDVMVPFGPLAFMPGKLVHTNEVTVLLGDNWFAKCSAKQAVGLVEHRKEHVRKTIDDFKKVLKNFESRVEFTEDLQKMSDAAGDFVDIREEIKSDFEFKGKQRIAHKPHSKPKTSDIFEADFENGVKPKNTFDADELWARLEELERQEELLGELESKPDTVIANGEDRVSSEEEKEGADTGVNVVSPVTDSSAASSCKRRAGNAGLPNGQVNSLNYSVNGSNSYHSNKDDDEEEEDDDDDDDEDDDNESDHAISADNSIPTIYFSHTVEPKRVRINTGKNTTLKFSEKKEEAKRKRKSGAGSHATHELPAIKSPADIYRVFVDVVNGEYVPRKSILKSRSRENSVCSDTSESSAADVEDRRGLLRSTASEEAVATEAGGSSLDELQENHPKKPLPSGVSEAFSGTVIEKEFLSPSLAPYSAIAHHALPTIPERKEVPSEVSEEPTKRVSKFRAARLQQRS
B2: the binding result is listed as “binds”.
